The results in this text go back to patent US20120121587A1 (Chugai, published 2012).

As a reminder, the Kd is the concentration at which binding is half-saturated.

The target in the test is T1, Human recombinant AXL-FND1 (GST-FND1), from pET-41b(+) (human, UniProt P30530 225-331).
T1 construct: Expressed in E. coli, purified on Glutathione Sepharose; analyte in all Biacore measurements; GST put first by the usual layout of pET-41; not shown: GST-tag of vector pET-41b(+) (Novagen)
T1 sequence (looked up): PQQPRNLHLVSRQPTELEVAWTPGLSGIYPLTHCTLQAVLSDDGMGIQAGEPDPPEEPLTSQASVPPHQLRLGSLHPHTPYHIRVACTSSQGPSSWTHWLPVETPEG
Description: SPR (Biacore T100): antibody captured on Protein A, GST-FND1 as analyte. On the procedure: Kinetic analyses of antigen-antibody reactions of humanized AXL antibodies were carried out using Biacore T100 (BIACORE). rec-Protein A (Zymed) (hereinafter, Protein A) was immobilized onto a sensor chip, various antibodies were bound to it, then an antigen as the analyte was flushed to measure the antibody-antigen interaction. Human recombinant AXL-FND1 (prepared in 2-2; hereinafter referred to as GST-FND1) prepared at various concentrations was used as the antigen. From the sensorgrams obtained through the measurements, kinetic parameters, namely binding rate constant kₐ (1/Ms) and dissociation rate constant kd (1/s), were calculated, and Kd (M) was calculated based on these values. Biacore T100 Evaluation Software (BIACORE) was used to calculate each of the parameters.
The sensor chips were produced by immobilizing approximately 3000 RU of Protein A onto CM5 (BIACORE) by amine coupling. Using the produced sensor chip, kinetic analyses were carried out on the interaction between the Protein A-bound antibodies and GST-FND1. HBS-EP+ was used as the running buffer, and the flow rate was set to 30 μL/min. Each antibody was prepared at 1 μg/mL using the running buffer, and was subjected to binding with Protein A for two minutes. GST-FND1 as the analyte was prepared at 0.5 and 2.0 μg/mL using HBS-EP+. Measurements were carried out by first binding the various humanized AXL antibodies, chimeric AXL antibodies, or mouse AXL antibodies of interest to Protein A, then applying an analyte solution to them for a two-minute interaction, and then switching to HBS-EP+ (BIACORE) for a two-minute measurement of the dissociation phase. After completion of measurement of the dissociation phase, 30 μL of 10 mM glycine-HCl (pH 2.0) was used for washing to regenerate the sensor chip. Such binding, dissociation, and regeneration were defined as one cycle of analysis. All experiments were performed at 25° C.
Affinity evaluation of each of the variants by Biacore was carried out by the method of Example 2.
A general note: SPR reads the build-up and loss of mass on a sensor chip optically.

B1: H9/L1 (antibody, human IgG1, kappa)
heavy: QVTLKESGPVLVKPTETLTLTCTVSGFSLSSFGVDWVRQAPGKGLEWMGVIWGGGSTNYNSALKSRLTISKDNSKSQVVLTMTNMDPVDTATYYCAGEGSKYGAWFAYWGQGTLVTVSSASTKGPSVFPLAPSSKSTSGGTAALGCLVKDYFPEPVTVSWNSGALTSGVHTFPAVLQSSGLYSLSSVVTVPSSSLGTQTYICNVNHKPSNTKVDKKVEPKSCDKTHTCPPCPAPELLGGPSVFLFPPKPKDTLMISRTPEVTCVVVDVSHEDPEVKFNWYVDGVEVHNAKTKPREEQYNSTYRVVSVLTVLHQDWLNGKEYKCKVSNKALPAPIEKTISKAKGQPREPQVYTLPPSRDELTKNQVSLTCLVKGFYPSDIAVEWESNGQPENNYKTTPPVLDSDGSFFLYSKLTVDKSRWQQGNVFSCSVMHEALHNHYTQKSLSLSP
light: DVVMTQSPLSLPVTLGQPASISCQSSQNIVHTNGNTYLEWYQQKPGKAPELLIYKVSNRFSGVPDRFSGSGSGTDFTLKISRVEAEDVGVYYCFQGSHIPFTFGQGTKLEIKRTVAAPSVFIFPPSDEQLKSGTASVVCLLNNFYPREAKVQWKVDNALQSGNSQESVTEQDSKDSTYSLSSTLTLSKADYEKHKVYACEVTHQGLSSPVTKSFNRGEC
For B1, the Kd turned out to be 2.49 nM.

B2: H9/L5 (antibody, human IgG1, kappa, V domains shown)
VH: QVTLKESGPVLVKPTETLTLTCTVSGFSLSSFGVDWVRQAPGKGLEWMGVIWGGGSTNYNSALKSRLTISKDNSKSQVVLTMTNMDPVDTATYYCAGEGSKYGAWFAYWGQGTLVTVSS
VL: DVVMTQSPLSLPVTLGQPASISCRSSQNIVHTNGNTYLEWYQQKPGQAPELLIYKVSNRFSGVPDRFSGSGSGTDFTLKISRVEAEDVGVYYCFQGSHIPFTFGQGTKLEIKR
With B2, the Kd turned out to be 2.53 nM.

B3: H9/L12 (antibody, human IgG1, kappa, V domains shown)
VH: QVTLKESGPVLVKPTETLTLTCTVSGFSLSSFGVDWVRQAPGKGLEWMGVIWGGGSTNYNSALKSRLTISKDNSKSQVVLTMTNMDPVDTATYYCAGEGSKYGAWFAYWGQGTLVTVSS
VL: DVVMTQSPLSLPVTLGQPASISCQSSQNIVHTNGNTYLEWYQQKPGEAPELLIYKVSNRFSGVPDRFSGSGSGTDFTLKISRVEAEDVGVYYCFQGSHIPFTFGQGTKVEIER
On to B3, for which the Kd turned out to be 2.55 nM.

B4: H9/L13 (antibody, human IgG1, kappa, V domains shown)
VH: QVTLKESGPVLVKPTETLTLTCTVSGFSLSSFGVDWVRQAPGKGLEWMGVIWGGGSTNYNSALKSRLTISKDNSKSQVVLTMTNMDPVDTATYYCAGEGSKYGAWFAYWGQGTLVTVSS
VL: DVVMTQSPLSLPVTLGQPASISCQSSQNIVHTNGNTYLEWYQQKPGQAPELLIYKVSNRFSGVPDRFSGSGSGTDFTLKISRVEAEDVGVYYCFQGSHIPFTFGQGTKVEIER
As to B4, the dissociation constant (Kd) stood at 2.45 nM.

B5: H9/L11 (antibody, human IgG1, kappa)
heavy: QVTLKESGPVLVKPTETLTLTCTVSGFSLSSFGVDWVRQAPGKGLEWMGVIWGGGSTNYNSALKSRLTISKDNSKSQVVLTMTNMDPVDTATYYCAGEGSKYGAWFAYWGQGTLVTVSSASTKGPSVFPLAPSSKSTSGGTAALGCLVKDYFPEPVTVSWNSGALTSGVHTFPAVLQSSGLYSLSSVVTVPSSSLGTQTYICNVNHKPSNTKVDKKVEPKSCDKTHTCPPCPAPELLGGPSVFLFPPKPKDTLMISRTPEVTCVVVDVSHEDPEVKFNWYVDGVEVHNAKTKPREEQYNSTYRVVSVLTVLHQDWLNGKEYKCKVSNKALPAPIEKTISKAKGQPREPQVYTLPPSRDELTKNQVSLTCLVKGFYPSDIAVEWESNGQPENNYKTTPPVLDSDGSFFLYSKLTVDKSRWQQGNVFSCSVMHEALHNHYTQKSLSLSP
light: DVVMTQSPLSLPVTLGQPASISCQSSQNIVHTNGNTYLEWYQQKPGKAPELLIYKVSNRFSGVPDRFSGSGSGTDFTLKISRVEAEDVGVYYCFQGSHIPFTFGQGTKVEIERTVAAPSVFIFPPSDEQLKSGTASVVCLLNNFYPREAKVQWKVDNALQSGNSQESVTEQDSKDSTYSLSSTLTLSKADYEKHKVYACEVTHQGLSSPVTKSFNRGEC
As to B5, the Kd came out at 2.4 nM.

B6: H9/L3 (antibody, human IgG1, kappa, V domains shown)
VH: QVTLKESGPVLVKPTETLTLTCTVSGFSLSSFGVDWVRQAPGKGLEWMGVIWGGGSTNYNSALKSRLTISKDNSKSQVVLTMTNMDPVDTATYYCAGEGSKYGAWFAYWGQGTLVTVSS
VL: DVVMTQSPLSLPVTLGQPASISCQSSENIVHTNGNTYLEWYQQKPGKAPELLIYKVSNRFSGVPDRFSGSGSGTDFTLKISRVEAEDVGVYYCFQGSHIPFTFGQGTKLEIKR
On to B6, for which the dissociation constant (Kd) turned out to be 2.97 nM.

B7: H9/L4 (antibody, human IgG1, kappa, V domains shown)
VH: QVTLKESGPVLVKPTETLTLTCTVSGFSLSSFGVDWVRQAPGKGLEWMGVIWGGGSTNYNSALKSRLTISKDNSKSQVVLTMTNMDPVDTATYYCAGEGSKYGAWFAYWGQGTLVTVSS
VL: DVVMTQSPLSLPVTLGQPASISCRSSQNIVHTNGNTYLEWYQQKPGEAPELLIYKVSNRFSGVPDRFSGSGSGTDFTLKISRVEAEDVGVYYCFQGSHIPFTFGQGTKLEIKR
As to B7, the equilibrium dissociation constant (Kd) came to 2.64 nM.

B8: H9/L10 (antibody, human IgG1, kappa)
heavy: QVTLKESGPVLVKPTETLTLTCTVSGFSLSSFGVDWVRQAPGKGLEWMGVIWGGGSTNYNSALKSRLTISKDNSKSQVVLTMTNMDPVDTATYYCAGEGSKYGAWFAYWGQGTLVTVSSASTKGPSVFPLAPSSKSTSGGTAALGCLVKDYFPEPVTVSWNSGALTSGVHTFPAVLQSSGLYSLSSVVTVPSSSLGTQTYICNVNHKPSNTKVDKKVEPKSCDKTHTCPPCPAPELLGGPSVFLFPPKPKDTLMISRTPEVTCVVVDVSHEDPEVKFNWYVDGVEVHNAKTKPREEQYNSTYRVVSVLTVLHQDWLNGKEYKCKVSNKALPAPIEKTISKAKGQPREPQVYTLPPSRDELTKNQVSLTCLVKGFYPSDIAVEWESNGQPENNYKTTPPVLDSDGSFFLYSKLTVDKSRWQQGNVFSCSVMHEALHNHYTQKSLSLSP
light: DVVMTQSPLSLPVTLGQPASISCRSSQNIVHTNGNTYLEWYQQKPGKAPELLIYKVSNRFSGVPDRFSGSGSGTDFTLKISRVEAEDVGVYYCFQGSHIPFTFGQGTKVEIERTVAAPSVFIFPPSDEQLKSGTASVVCLLNNFYPREAKVQWKVDNALQSGNSQESVTEQDSKDSTYSLSSTLTLSKADYEKHKVYACEVTHQGLSSPVTKSFNRGEC
With B8, the Kd is 2.92 nM.
